Measurements published in patent US20150158949A1 (MEDLMMUNE, published 2015).
Values belong to the binder of their own block, whether it stands above or below them.

Tests used:
[1] = biological target: T1, IFNAR1 (Interferon alpha receptor-1) (human, UniProt P17181 28-557); assay: cell-based or functional assay
T1 sequence (looked up): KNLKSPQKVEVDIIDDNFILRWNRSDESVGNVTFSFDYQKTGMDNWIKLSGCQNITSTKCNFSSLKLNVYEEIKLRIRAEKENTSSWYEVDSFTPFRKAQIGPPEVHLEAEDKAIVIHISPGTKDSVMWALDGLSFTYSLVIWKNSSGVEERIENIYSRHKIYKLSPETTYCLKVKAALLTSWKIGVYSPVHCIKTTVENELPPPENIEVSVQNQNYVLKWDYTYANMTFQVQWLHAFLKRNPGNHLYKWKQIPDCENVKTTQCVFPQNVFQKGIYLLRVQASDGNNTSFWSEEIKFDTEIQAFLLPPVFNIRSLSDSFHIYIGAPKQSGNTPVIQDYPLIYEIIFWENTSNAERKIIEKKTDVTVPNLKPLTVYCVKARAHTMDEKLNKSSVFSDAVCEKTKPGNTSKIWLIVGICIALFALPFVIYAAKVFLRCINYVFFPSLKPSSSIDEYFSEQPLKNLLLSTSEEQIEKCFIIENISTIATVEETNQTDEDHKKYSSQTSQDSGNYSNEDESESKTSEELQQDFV

[2] = biological target: T1, IFNAR1 (Interferon alpha receptor-1); assay: live-cell confocal fluorescence imaging of IFNAR1-expressing THP-1 cells, 1 µg/mL, stained on ice, FcR blocked
Protocol: Reaction mixtures were purified from unincorporated fluorescent molecules using size-exclusion mini-columns provided in the kit. IFNAR1-expressing THP-1 cells were maintained in suspension using RPMI growth medium containing 10% FBS, and seeded in a fresh growth medium at 2×10^5 cells/mL overnight prior to the experiments. On the day of experiments, THP-1 cells were washed and resuspended to a concentration of 3×10⁶ cells/mL.
Cell suspensions were first stained for 10-20 min with cytosol dye, CFSE, from Invitrogen (Life Technologies Corp, Carlsbad, Calif.) in a CO₂ incubator at 37° C. Excess CFSE was removed by two washes with 1×PBS. […] Following the removal of unincorporated antibodies by centrifugation, cells were resuspended to initial volumes, and dispensed into the wells of 384-well imaging plates.

IC50 (nM), bootstrap median [1]: 0.772 nM
IC50 (nM): Potency, MEDI-546 concentration corresponding to half-maximum inhibition of GS production [1]: 0.978 nM
B1: MEDI-546 (antibody, human IgG1, V domains shown)
VH: EVQLVQSGAEVKKPGESLKISCKGSGYIFTNYWIAWVRQMPGKCLESMGIIYPGDSDIRYSPSFQGQVTISADKSITTAYLQWSSLKASDTAMYYCARHDIEGFDYWGRGTLVTVSS
VL: EIVLTQSPGTLSLSPGERATLSCRASQSVSSSFFAWYQQKPGQAPRLLIYGASSRATGIPDRLSGSGSGTDFTLTITRLEPEDFAVYYCQQYDSSAITFGQGTRLEIK

binding result [2]: binds
B2: MEDI-546-Alexa647 (antibody, human IgG1, V domains shown)
VH: B1 VH
VL: B1 VL
modifications: Alexa647 dye conjugated to the antibody (sites and chain not stated)
